Laboratory results taken from the supplement of paper PMC12042874.
± gives the uncertainty stated by the source.

test: amyloid nucleation score (Sup35N fusion, yeast selection) (log enrichment); library NNK1; higher = more nucleation; inactive = no reads after selection
Outline: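 For the nucleation score, DiMSum gave the log enrichment of output over input reads, centred on the mode score of non-aggregating sequences. Psi-negative yeast expressing Sup35N fused to peptides of 20 random codons were induced with 100 μM copper sulfate for 24 hours and grown 7 days at 30°C on medium lacking adenine and uracil. Input and output plasmid inserts were Illumina-sequenced, and sequences with under 100 input reads were excluded.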

| Substance | amyloid nucleation score |
| --- | --- |
| KFFFKSSNDVIKGVHNRTIR | -0.404 ± 0.49 |
| GNSVIDRSFGIFNCYEGLSC | 1.62 ± 0.72 |
| RGSKRTVKLNSGVRVKSYDW | 0.373 ± 1.4 |
| SWSSVQSAVKGHPLGGNTGR | -0.72 ± 0.74 |
| SLGIHPHVDKLLYRRFQLDY | -0.567 ± 0.77 |
| GVRAVLFETWCRN | -0.693 ± 1 |
| IYVWKTQ | -0.242 ± 0.5 |
| VPRVYMFKFGIILFFYMHKA | -0.273 ± 0.3 |
| CVDRNG | -0.362 ± 0.39 |
| GLVSQPFWCSYKCGGHNHKG | 0.314 ± 1.4 |
| MSSLIVYLRDAPRVLNLYVR | 2.5 ± 0.17 |
| ISLISYFFSFLWLYYYFFEF | 1.06 ± 0.28 |
| NCEFIVWGVSSNFEMVFGLM | -0.267 ± 0.9 |
| GGQRWELLFLTRGPGRRWQG | 0.2 ± 1.2 |
| FRSGYRLACSAMSIAFCIYE | 0.341 ± 0.48 |
| IYDIEEDLCSVSVSGKESWV | -0.307 ± 0.47 |
| IETWCVKWFH | -0.299 ± 0.32 |
| FRSAKAIMLEVN | 0.048 ± 0.41 |
| FDFCVEIWLRVFLNMWGRLR | 0.689 ± 0.33 |
| FRCLRTRSCLQWAQGLGAEA | 0.596 ± 0.47 |
| HMRMGLGRLVHLWYWPTRDT | 0.153 ± 0.56 |
| LCFGGRSWSCFVKVKHLFAC | 1.68 ± 0.51 |

| Substance | amyloid nucleation score |
| --- | --- |
| ICFFGCQGGGPRLRQDRCRT | -0.53 ± 0.63 |
| SPVESQNSNNRLTIMDLIMR | 0.574 ± 0.97 |
| MLLWQRSGMQLLAGLSHRVR | -0.702 ± 0.99 |
| PLLFKGYNAHRPNLVLTTML | -0.143 ± 1.7 |
| WSCTSCFNYGLF | 7.178 ± 0.052 |
| TCSGA | -0.073 ± 0.39 |
| FMRDCSYI | 0.687 ± 0.79 |
| RVRVSLTWQLISLVVMSEYR | 0.809 ± 0.64 |
| SYEVFEIISNCLEY | -0.321 ± 0.35 |
| SMAPGDSS | 0.02 ± 0.34 |
| PGRFLGLNSMTALVWY | 0.095 ± 0.37 |
| ETACLYLLFMSKACMRMMNS | -0.219 ± 1.1 |
| VRVSVLLVYSGGRFSFPWVL | -0.063 ± 1.4 |
| SNIWSSKKINTCLGM | 1.7 ± 0.16 |
| GWLIR | inactive |
| LRTARNMGYICSIVSFNNLN | 5.13 ± 0.055 |
| KWEYCCLFMLAHVEDHLKGF | 0.59 ± 0.34 |
| RSLLHCYHNKWMSVRTAFSP | 0.642 ± 0.66 |
| SVDNMVGVTGSFGGARVILS | -0.237 ± 0.39 |
| GFMIICN | -0.405 ± 0.88 |
| TAIIPPHFLASDSFRWSCAC | 0.008 ± 0.34 |
| SYILEKGLQTAYCVC | 1.42 ± 0.46 |

| Substance | amyloid nucleation score |
| --- | --- |
| LIQWENGTH | -0.672 ± 0.34 |
| FHWVGVSYQLKMRRVKPKGV | -0.441 ± 1.1 |
| TEFFGVGLRMKSNGVWWISG | -0.65 ± 1.4 |
| DLSWSGTFSAGHGNMNFTKS | 2.53 ± 0.15 |
| LIIKEFITLLSPCWELLRIR | 0.901 ± 0.9 |
| SEKGCYYIGSLTGR | 0.184 ± 1.2 |
| IYYGQGICLVFAFNLLCNVL | 6.261 ± 0.048 |
| MSRMFRVLHRVLSSW | -0.538 ± 1.2 |
| FCFMYDGHEAWSKAFSRRNV | 0.196 ± 0.3 |
| FVLHCCRLRGHTSSSHWLGA | 0.245 ± 0.43 |
| NTHTAWNRIGRTWRQNWTWG | 0.061 ± 0.47 |
| ISICYRIEKRE | inactive |
| KLGCYTL | 0.367 ± 0.81 |
| FFVLKGECVGGLMPWTRVTA | -0.24 ± 0.92 |
| PEGWYLTNCRAGRFSSR | -0.222 ± 0.39 |
| ELKLLSNAFGMQGIWIRRVV | -0.113 ± 0.32 |
| IIEIFVDIRYHFMY | 1.91 ± 0.38 |
| NMTFSMPSNINCPFLGLR | 0.29 ± 0.47 |
| NCFRLLCFRGLVGQRGL | 0.141 ± 0.59 |
| NSRWSIFFASMCDIRLWCVV | 0.755 ± 0.84 |
| KNSLTTKVLLCTLAATL | 0.603 ± 0.73 |
| YFSKTISFLFSFNSCYEFIK | 1.19 ± 0.44 |

| Substance | amyloid nucleation score |
| --- | --- |
| SLYRDYVRFGWLVRCGNGHD | 0.078 ± 0.23 |
| LHGLNF | 0.843 ± 0.74 |
| FFLWGRW | -0.341 ± 0.43 |
| NPPWQCGVRHDHLWVTSYHS | -0.481 ± 0.32 |
| FTCFAK | 1.14 ± 0.52 |
| KGGSFVGLSTVQYLLASYAL | -0.153 ± 1.3 |
| PWFIYDSLGFNSRCRSHLIK | -0.069 ± 0.88 |
| GNVLDFCPWLVGLLCHGGGV | 0.149 ± 0.35 |
| WLRRCEGGKMSYSSLSTVES | -0.563 ± 0.45 |
| RVRILITYM | 1.18 ± 0.17 |
| YAYMVLVVPRDSVLEESECR | -0.087 ± 0.78 |
| VYNWRLMEYHRGWDHFCYLS | -0.559 ± 0.33 |
| FNWMRP | 0.706 ± 0.31 |
| IRMGCNVHREEVSFTVLAVH | 0.409 ± 0.66 |
| SWSPRHELPLGKLRWIWDRG | 1.03 ± 0.75 |
| SYAMLCIYVGYFIFLNSRMS | inactive |
| NRFYYKARCRQVGHCT | 0.743 ± 0.46 |
| TFYLSRDIRLYFSWN | 7.83 ± 0.049 |
| NHHLRPEMQEVCHL | 0.482 ± 0.67 |
